Assays:
Human OPG-Fc [1] = target: T1, Human OPG-Fc (human); test: HTRF competition, purified antibody titrated from 120 nM against 4 nM OPG-Fc and 16 nM TRAIL-Flag; remaining specific binding of TRAIL
T1 construct: also called hOPG-Fc; human OPG (in-house)

Cyno OPG-Fc [2] = target: T2, Cyno OPG-Fc (cynomolgus); test: SPR (ProteOn XPR36), antibody captured on anti-mouse IgG, OPG-Fc as analyte, 25 C, 1:1 model
T2 construct: The entry begins with a signal peptide ('usually cleaved upon expression'); also called cyno OPG (in-house)
T2 sequence (chain, as listed by the source limits assumed): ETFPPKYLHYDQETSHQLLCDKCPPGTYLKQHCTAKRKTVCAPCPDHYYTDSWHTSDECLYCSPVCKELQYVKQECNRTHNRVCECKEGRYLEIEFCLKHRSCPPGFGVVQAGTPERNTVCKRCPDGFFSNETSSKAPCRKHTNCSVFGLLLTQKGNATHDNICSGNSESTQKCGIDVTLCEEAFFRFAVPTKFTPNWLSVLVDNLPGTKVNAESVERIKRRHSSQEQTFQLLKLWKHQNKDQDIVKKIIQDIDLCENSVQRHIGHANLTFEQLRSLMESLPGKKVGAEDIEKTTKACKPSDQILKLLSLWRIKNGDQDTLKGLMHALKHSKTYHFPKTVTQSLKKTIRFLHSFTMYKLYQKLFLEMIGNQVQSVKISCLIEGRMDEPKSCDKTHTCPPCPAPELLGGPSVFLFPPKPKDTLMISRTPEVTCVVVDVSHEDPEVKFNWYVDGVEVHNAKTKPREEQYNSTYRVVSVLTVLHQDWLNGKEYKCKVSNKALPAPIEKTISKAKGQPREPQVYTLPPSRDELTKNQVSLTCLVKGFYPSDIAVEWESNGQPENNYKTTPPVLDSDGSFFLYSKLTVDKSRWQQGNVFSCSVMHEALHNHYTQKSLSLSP
Method: (§1) Affinity of secreted antibodies was assessed by testing hybridoma supernatants by Label-free surface plasmon resonance (SPR). This analysis was carried out on the ProteOn XPR36 (BioRad) array SPR machine. An anti-mouse IgG capture surface was created on a GLC biosensor chip using amine coupling of an anti-mouse IgG from GE Healthcare. Test antibodies were captured on this surface and human, rat and cyno OPG (in-house) was used as the analyte at 256 nM, 64 nM, 16 nM, 4 nM and 1 nM for Ky3 (15F11), Ky4 (16G05), 5A06, 25F06, 15B08 and 10B07 and at a single concentration of 100 nM for Ky1 (6D07) and Ky2 (8C10). The assay was carried out at 25° C. using HBS-EP (Teknova H8022). Buffer alone was used to reference the binding sensorgrams. The data was analysed using the 1:1 model inherent to the ProteOn XPR36 analysis software.

Human OPG-Fc [3] = target: T1, Human OPG-Fc; test: as above
Method: as §1

Rat OPG-Fc [4] = target: T3, Rat OPG-Fc (rat); test: as above
T3 construct: The entry begins with a signal peptide ('usually cleaved upon expression'); also called rat OPG (in-house)
T3 sequence (chain, as listed by the source limits assumed): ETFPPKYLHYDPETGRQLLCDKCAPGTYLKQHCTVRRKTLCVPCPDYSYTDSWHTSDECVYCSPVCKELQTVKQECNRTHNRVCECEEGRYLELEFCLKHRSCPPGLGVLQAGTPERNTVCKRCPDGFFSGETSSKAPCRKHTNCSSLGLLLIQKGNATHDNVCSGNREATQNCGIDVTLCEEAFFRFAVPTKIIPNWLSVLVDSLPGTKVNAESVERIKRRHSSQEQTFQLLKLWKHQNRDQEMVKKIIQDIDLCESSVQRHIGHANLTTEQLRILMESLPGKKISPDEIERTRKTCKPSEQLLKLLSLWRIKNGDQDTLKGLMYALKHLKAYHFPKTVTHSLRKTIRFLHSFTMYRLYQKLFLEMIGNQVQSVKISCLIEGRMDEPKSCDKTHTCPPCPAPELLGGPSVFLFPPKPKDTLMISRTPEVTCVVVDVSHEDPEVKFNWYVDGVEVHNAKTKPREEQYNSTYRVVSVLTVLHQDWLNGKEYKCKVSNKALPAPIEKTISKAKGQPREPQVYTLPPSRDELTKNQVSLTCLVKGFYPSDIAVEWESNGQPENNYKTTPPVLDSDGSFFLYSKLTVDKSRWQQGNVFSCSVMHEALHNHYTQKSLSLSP
Method: as §1

Cyno OPG-Fc [5] = target: T2, Cyno OPG-Fc; test: SPR (ProteOn XPR36), antibody captured on anti-mouse IgG, OPG-Fc as analyte, 25 C, 1:1 model; apparent affinity
Human OPG-Fc [6] = target: T1, Human OPG-Fc; test: as above
Rat OPG-Fc [7] = target: T3, Rat OPG-Fc; test: as above
Cyno OPG-Fc [8] = target: T2, Cyno OPG-Fc; test: SPR (ProteOn XPR36); CNROR = cannot resolve off rate, no KD given
Human OPG-Fc [9] = target: T1, Human OPG-Fc; test: HTRF competition, purified antibody titrated from 120 nM against 20 nM OPG and 55.6 nM RANKL-647; remaining specific binding of RANKL
Cyno OPG-Fc [10] = target: T2, Cyno OPG-Fc; test: SPR (ProteOn XPR36), antibody captured on anti-mouse IgG, OPG-Fc as analyte; CNROR = cannot resolve off rate, no KD given
Human OPG-Fc [11] = target: T1, Human OPG-Fc; test: HTRF competition, purified antibody titrated from 120 nM against 4 nM OPG-Fc and 16 nM TRAIL-Flag; inhibition of TRAIL binding
Human OPG-Fc [12] = target: T1, Human OPG-Fc; test: cell-based or functional assay

T1 sequence (chain, as listed by the source limits assumed): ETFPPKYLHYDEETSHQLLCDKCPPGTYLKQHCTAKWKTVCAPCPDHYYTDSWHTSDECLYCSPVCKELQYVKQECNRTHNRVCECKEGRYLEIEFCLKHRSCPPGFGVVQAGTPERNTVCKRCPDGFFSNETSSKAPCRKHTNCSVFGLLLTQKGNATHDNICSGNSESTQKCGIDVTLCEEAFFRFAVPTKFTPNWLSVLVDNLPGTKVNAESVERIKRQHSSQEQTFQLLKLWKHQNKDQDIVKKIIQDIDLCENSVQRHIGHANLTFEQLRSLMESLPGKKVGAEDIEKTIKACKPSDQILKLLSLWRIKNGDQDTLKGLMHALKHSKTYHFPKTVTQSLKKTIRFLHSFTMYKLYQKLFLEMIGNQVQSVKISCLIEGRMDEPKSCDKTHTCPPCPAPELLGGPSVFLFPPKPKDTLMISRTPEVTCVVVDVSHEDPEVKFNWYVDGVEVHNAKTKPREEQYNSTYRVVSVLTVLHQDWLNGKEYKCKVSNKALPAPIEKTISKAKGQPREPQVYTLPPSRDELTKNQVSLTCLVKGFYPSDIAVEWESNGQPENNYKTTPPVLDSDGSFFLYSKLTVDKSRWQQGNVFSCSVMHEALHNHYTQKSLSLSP

B1: Ky1 (6D07) (antibody, V domains shown)
VH: QVQLVQSGAEVKKPGASVKVSCKASGYTFTSYGISWVRQAPGQGLEWMGWISAYNGNTNYKQKLQGRVTMTTDTSTSTAYMELRSLRSDDTAVYYCARGGSGRYYPWGQGTLVTVSS
VL: DIQMTQSPSSLSASVGDRVTITCRASQGIRNDLGWYQQIPGKAPKRLIYDASSLQSGVPSRFSGSGSGTEFTLTISSLQPEDFATYYCLQHNSYPFTFGPGTKVDIK
notes: Campaign KM059; In SPR and HTRF it was tested as hybridoma material (human variable regions, mouse constant regions; captured on anti-mouse IgG)
In the case of B1, the “% Max Specific binding” value (Human OPG-Fc [1]) is reported as 4.8%, the Kd (Cyno OPG-Fc [2]) is reported as 14.8 nM and the Kd (Human OPG-Fc [3]) is reported as 0.17 nM. For the same binder, the Kd (Rat OPG-Fc [4]) was 1.35 nM, the Kd (Cyno OPG-Fc [5]) was 14.8 nM and the Kd (Human OPG-Fc [6]) was 0.17 nM. It also gave a Kd (Rat OPG-Fc [7]) of 1.35 nM.

B2: Ky2 (8C10) (antibody, V domains shown)
VH: EVQLVESGGGLVQPGRSLRLSCAASGFTFDDYAMHWVRQGPGKGLEWVSSISWNSGRIDYADSVKGRFTISRDNAKNSLYLQMNRLRAEDTALYYCAKDGFYDILTGSFFDYWGQGILVTVSS
VL: DIQMTQSPSSLSASVGDRVTITCRASQSISSYLNWYHQEPGKAPNLLIYGASSLQSGVPSRFSGSGSGTDFTLTISSLQPEDFATYYCQQSYSAPPEWTFGQGTKVEIK
notes: as for B1
B2 was tested, and the “% Max Specific binding” value (Human OPG-Fc [1]) was 20.1%, the Kd (Human OPG-Fc [3]) was 0.1 nM and the Kd (Rat OPG-Fc [4]) was 7.39 nM. The Kd (Human OPG-Fc [6]) was 0.1 nM, the Kd (Rat OPG-Fc [7]) was 7.39 nM and the binding result (Cyno OPG-Fc [8]) was “binds”.

B3: Ky4 (16G05) (antibody, V domains shown)
VH: EVQLVESGGGLVQPGRSLRLSCAVSGFTFDDYAMHWVRQPPGKGLEWVSGISWNSGSIDYADSVKGRFTISRDNAKNSLYLQMNSLRAEDTALYYCAKDYYYDSSAYVLFDYWGQGTLVTVSS
VL: DIQMTQSPSSLSASVGDRVIITCRASQSISSYLNWYQQKPGKAPELLIYGASSLQSGVPSRFSGSGSGTDFTLTISSLQPEDFATYYCQQSFSTPLTFGGGTKVEIK
notes: Campaign KM058; In SPR and HTRF it was tested as hybridoma material (human variable regions, mouse constant regions; captured on anti-mouse IgG)
For B3, the “% Max Specific binding” value (Human OPG-Fc [1]) was 50.7%, the Kd (Cyno OPG-Fc [2]) was 0.166 nM and the Kd (Human OPG-Fc [3]) was 0.18 nM. The Kd (Rat OPG-Fc [4]) was 1.3 nM, the Kd (Cyno OPG-Fc [5]) was 0.17 nM and the Kd (Human OPG-Fc [6]) was 0.18 nM. For the same binder, the Kd (Rat OPG-Fc [7]) was 1.3 nM and the “% Max Specific binding” value (Human OPG-Fc [9]) was 65.1%.

B4: Ky5 (15H06) (antibody, V domains shown)
VH: not shown
VL: AIQMTQSPSSVSASVGDRVTITCRASQGISSWLAWYQQKPGKAPKLLIYAASSLHSGVPSRFSGSGSETDFTLTISSLHPEDFATYYCQQSNSFPLTFGGGTKVEIK
notes: as for B3
For B4, the binding result (Cyno OPG-Fc [10]) was “binds”, the “% Max Specific binding” value (Human OPG-Fc [1]) was 55.8% and the Kd (Human OPG-Fc [3]) was 0.18 nM. For the same binder, the Kd (Rat OPG-Fc [4]) was 0.36 nM, the Kd (Human OPG-Fc [6]) was 0.18 nM and the Kd (Rat OPG-Fc [7]) was 0.36 nM. The “% Max Specific binding” value (Human OPG-Fc [9]) was 86.6%.

B5: Ky3 (15F11) (antibody, V domains shown)
VH: EVQLVESGGGLVQPGGSLRLSCAASGFTFGRYDMNWVRQTTGKGLEWVSAIGTAGDTYYPGSVKGRFTISRENAKNSLYLQMNSLRPGDTAVYYCARARPYYYDSGSYYHAPFDYWGQGTLVTVSS
VL: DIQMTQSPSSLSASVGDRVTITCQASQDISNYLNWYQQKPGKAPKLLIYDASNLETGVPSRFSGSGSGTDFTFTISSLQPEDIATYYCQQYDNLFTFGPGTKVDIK
notes: as for B3
With B5 the IC50 (Human OPG-Fc [11]) was 1.4 nM, the Kd (Rat OPG-Fc [4]) was 0.12 nM and the Kd (Rat OPG-Fc [7]) was 0.12 nM. For the same binder, the “EC50 (read off the curve)” value (Human OPG-Fc [12]) was about 10 nM, the binding result (Cyno OPG-Fc [8]) was “binds” and the “% Max Specific binding” value (Human OPG-Fc [9]) was 27.1%.

From US20190352413A1 (KYMAB, published 2019)
